We go through one molecule from PMC11005723, “Development of Complementary Photo‐arginine/lysine to Promote Discovery of Arg/Lys hPTMs Interactomes” (Advanced Science, 2024).

By Kd is commonly meant the equilibrium constant for the complex coming apart. Lower therefore signals a tighter complex.

The target of this assay is PHD domain of UHRF1 (UHRF1PHD). Nature of the assay: ITC; 25 °C, MicroCal PEAQ-ITC; protein in the cell titrated with 19 injections of peptide. In general terms: ITC needs no label: the signal is the heat of the interaction.

Non-standard residues stand in square brackets, D forms with d. Primed or numbered codes have the meaning given here. No end group written: not given here. *: point of attachment. R(dz)″ = photo-arginine carrying a diazirine photo-crosslinker; Biotin = O=C1N[C@H]2[C@H](CS[C@H]2CCCCC(=O)*)N1

The molecule A[R(dz)″]TKQTARKSTGGK(Biotin)A-NH2 [H3K4‐R2dz (probe 1)] showed a Kd of 10.6 µM. That is a double-digit micromolar value.
